Assays:
[1] = molecular target: glycoproteins on HeLa cells; assay: SPR imaging on fixed HeLa cells on gold, 50 µg/ml WGA, average of 10 cells, first order kinetic fit
[2] = molecular target: glycoproteins on HeLa cells; assay: CAR imaging on fixed HeLa cells on glass, 50 µg/ml WGA, average over cells, first order kinetic fit

B1: wheat germ agglutinin (WGA) with Alexa Fluor 488 tag (protein, UniProt P10968 27-197, looked up)
chain: QRCGEQGSNMECPNNLCCSQYGYCGMGGDYCGKGCQNGACWTSKRCGSQAGGATCTNNQCCSQYGYCGFGAEYCGAGCQGGPCRADIKCGSQAGGKLCPNNLCCSQWGFCGLGSEFCGGGCQSGACSTDKPCGKDAGGRVCTNNYCCSKWGSCGIGPGYCGAGCQSGGCDG
modifications: Alexa Fluor 488 label, site not stated
In the case of B1, the Kd [1] is reported as 53 nM, the koff [1] is reported as 0.00013 s⁻¹ and the kon [1] is reported as 2500 M⁻¹ s⁻¹. For the same binder, the Kd [2] was 42 nM, the koff [2] was 0.00026 s⁻¹ and the kon [2] was 6000 M⁻¹ s⁻¹.

From US20240118200A1
